Source: US12384850 (SYSTIMMUNE, dated 2025)

How the values were obtained:
[1] = target: T1, human 41BB (human, UniProt Q07011 24-255); experiment: FACS on human 41BB transfected CHO cells
T1 construct: whole, on cells; also called 41BB expressing CHO cells; human 41BB transfected CHO cells
Method: (§1) Example 2: FACS Analysis of Tetra-Specific GNC Antibody Binding to Human 41BB Transfected CHO Cells The tetra-specific GNC antibodies listed in TABLEs 3 and 4 were tested for binding to Chinese hamster ovary cells (CHO) cells stably expressing a full-length human ROR1. Antibodies were prepared at 2× final concentration and titrated 1:5 across 3 wells of a 96 well plate in 50 ul of PBS/2% FBS and then 5,000 ROR1-CHO cells in 50 ul PBS/2% FBS were added. This mixture was incubated for 30 minutes on ice, washed once with 200 ul PBS/2% FBS, and then the secondary antibody PE Goat anti-Human IgG Fc at 1:1000 dilution of stock was added, and this mixture was incubated for 30 minutes on ice. Cells were washed 2×200 ul PBS/2% FBS, resuspended in 50 ul PBS/2% FBS and analyzed on a BD LSRFORTESSA and the binding profile is shown in FIG. 5. All of the tetra-specific GNC antibodies except for the control SI-27E12 contain a 41BB binding domain, 460C3, 420H5, or 466F6 and bound to 41BB expressing CHO cells with varying intensity.

[2] = target: T2, human PD-L1 (human, UniProt Q9NZQ7 19-290); experiment: FACS on human PD-L1 transfected CHO cells
T2 construct: whole, on cells; also called PDL1 expressing CHO cells; human PD-L1 transfected CHO cells
Method: as §1, with “3:” for “2:”, “PDL1” for “41BB”, “[…]” for “a full-length”, “6.” for “5. All of the tetra-specific GNC antibodies except for the control SI-27E12 contain a 41BB binding domain, 460C3, 420H5, or 466F6 and bound to 41BB expressing CHO cells with varying intensity.”

[3] = target: T3, full-length human ROR1 (human, UniProt Q01973 30-937); experiment: FACS on CHO cells stably expressing full-length human ROR1
T3 construct: whole, on cells; also called human ROR1 transfected CHO cells; ROR1-CHO cells
Method: as §1, with “Example 1:” for “Example 2:”, “Tetra-Specific Specific” for “Tetra-Specific GNC”, “Human ROR1” for “Human 41BB”, “FIG. 4.” for “FIG. 5. All of the tetra-specific GNC antibodies except for the control SI-27E12 contain a 41BB binding domain, 460C3, 420H5, or 466F6 and bound to 41BB expressing CHO cells with varying intensity.”

T1 sequence (Q07011 24-255): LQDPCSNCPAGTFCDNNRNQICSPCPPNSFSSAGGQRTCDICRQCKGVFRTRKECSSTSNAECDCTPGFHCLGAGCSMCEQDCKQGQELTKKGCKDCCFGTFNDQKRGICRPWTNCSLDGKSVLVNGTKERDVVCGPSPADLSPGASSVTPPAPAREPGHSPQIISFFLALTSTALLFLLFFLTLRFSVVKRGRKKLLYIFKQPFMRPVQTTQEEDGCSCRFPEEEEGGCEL
T2 sequence (Q9NZQ7 19-290): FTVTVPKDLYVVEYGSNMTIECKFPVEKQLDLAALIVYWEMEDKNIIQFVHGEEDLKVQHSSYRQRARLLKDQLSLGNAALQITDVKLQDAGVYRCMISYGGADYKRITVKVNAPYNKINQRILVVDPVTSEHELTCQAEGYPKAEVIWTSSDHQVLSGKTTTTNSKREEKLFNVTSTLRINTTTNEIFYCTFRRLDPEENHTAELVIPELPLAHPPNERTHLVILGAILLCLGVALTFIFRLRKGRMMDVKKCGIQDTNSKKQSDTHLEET
T3 sequence (Q01973 30-937): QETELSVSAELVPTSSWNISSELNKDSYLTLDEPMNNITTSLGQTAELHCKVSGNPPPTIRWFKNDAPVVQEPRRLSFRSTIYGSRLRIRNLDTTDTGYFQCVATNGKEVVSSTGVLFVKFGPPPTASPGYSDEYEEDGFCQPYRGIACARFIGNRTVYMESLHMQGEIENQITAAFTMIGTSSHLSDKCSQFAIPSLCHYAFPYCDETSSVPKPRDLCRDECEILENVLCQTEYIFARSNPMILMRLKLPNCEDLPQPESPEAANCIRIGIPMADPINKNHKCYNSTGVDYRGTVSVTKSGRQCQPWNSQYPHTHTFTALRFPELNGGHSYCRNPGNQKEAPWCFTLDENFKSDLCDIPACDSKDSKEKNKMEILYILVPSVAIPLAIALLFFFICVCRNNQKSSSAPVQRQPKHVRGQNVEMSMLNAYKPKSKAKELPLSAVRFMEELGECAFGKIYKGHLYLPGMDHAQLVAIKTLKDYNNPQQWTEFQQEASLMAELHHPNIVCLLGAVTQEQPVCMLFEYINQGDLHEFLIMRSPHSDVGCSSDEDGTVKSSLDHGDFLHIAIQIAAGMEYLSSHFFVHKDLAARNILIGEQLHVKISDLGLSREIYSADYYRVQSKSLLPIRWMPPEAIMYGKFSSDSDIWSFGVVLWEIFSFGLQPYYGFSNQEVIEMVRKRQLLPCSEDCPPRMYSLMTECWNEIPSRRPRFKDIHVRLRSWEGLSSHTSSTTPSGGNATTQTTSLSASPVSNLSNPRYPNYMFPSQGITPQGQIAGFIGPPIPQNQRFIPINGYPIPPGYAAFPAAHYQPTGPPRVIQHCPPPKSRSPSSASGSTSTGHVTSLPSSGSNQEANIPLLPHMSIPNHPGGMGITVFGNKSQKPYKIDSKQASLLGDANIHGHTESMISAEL

Row | Binder | binding result [1] | binding result [2] | binding result [3]
1 | SI-27E15 (bispecific antibody, not shown: small tags and cut ends, also called control SI-27E15) heavy (part 1 of 7): DIQMTQSPSTLSASVGDRVTITCQSSQSVYSNWFSWYQQKPGKAPKLLIYSASTLASGVPSRFSGSGSGTEFTLTISSLQPDDFATYYCAGGYNTVIDTFAFGGGTKVEIK heavy (part 2 of 7): EVQLLESGGGLVQPGGSLRLSCAASGIDFSRRYYMCWVRQAPGKGLEWIACIYTGSRDTPHYASSAKGRFTISRDNSKNTLYLQMNSLRAEDTAVYYCAREGSLWGQGTLVTVSS heavy (part 3 of 7): not shown heavy (part 4 of 7): QSLVESGGGLVQPGGSLRLSCTASGFSLSRYYMTWVRQAPGKGLEWIGTIYTSGSTWYASWTKGRFTISKDNTKNTVDLQMNSLRAEDTAVYYCARSYYGGDKTGLGIWGQGTLVTVSS heavy (part 5 of 7): DIQMTQSPSTLSASVGDRVTITCQASQSIDSWLSWYQQKPGKAPKLLIYQASTLASGVPSRFSGSGSGTEFTLTISSLQPDDFATYYCQSAYGVSGTSSYLYTFGGGTKVEIK heavy (part 6 of 7): EVQLVESGGGLVQPGGSLRLSCAASGIDLSSNAMSWVRQAPGKGLEWIGVITGRDITYYASWAKGRFTISRDNSKNTLYLQMNSLRAEDTAVYYCARDGGSSAINSKNIWGQGTLVTVSS heavy (part 7 of 7): DIQMTQSPSTLSASVGDRVTITCQASESISSWLAWYQQKPGKAPKLLIYEASKLASGVPSRFSGSGSGTEFTLTISSLQPDDFATYYCQGYFYFISRTYVNAFGGGTKVEIK light: DVVMTQTPLSLPVSLGDQASISCRSSQSLVHSNGNTYLRWYLQKPGQSPKVLIYKVSNRFSGVPDRFSGSGSGTDFTLKISRVEAEDLGVYFCSQSTHVPWTFGGGTKLEIKRTVAAPSVFIFPPSDEQLKSGTASVVCLLNNFYPREAKVQWKVDNALQSGNSQESVTEQDSKDSTYSLSSTLTLSKADYEKHKVYACEVTHQGLSSPVTKSFNRGEC | binds | – | –
2 | SI-35E18 (460C3-L1H1-scFv × PL230C6-Fab × 323H7-H4L1-scFv × 284A10-H1L1-scFv) (bispecific antibody, human IgG1, kappa, Tetra-specific GNC antibody (41BB x PD-L1 x ROR1 x CD3), IgG1 null2 Fc) heavy: not shown light: AYDMTQSPSSVSASVGDRVTIKCQASEDIYSFLAWYQQKPGKAPKLLIHSASSLASGVPSRFSGSGSGTDFTLTISSLQPEDFATYYCQQGYGKNNVDNAFGGGTKVEIKRTVAAPSVFIFPPSDEQLKSGTASVVCLLNNFYPREAKVQWKVDNALQSGNSQESVTEQDSKDSTYSLSSTLTLSKADYEKHKVYACEVTHQGLSSPVTKSFNRGEC | binds | binds | binds
3 | SI-35E2 (bispecific antibody, not shown: small tags and cut ends, the listing has only VHv3/VLv2) heavy (part 1 of 7): DIQMTQSPSTLSASVGDRVTITCQSSQSVYSNWFSWYQQKPGKAPKLLIYSASTLASGVPSRFSGSGSGTEFTLTISSLQPDDFATYYCAGGYNTVIDTFAFGGGTKVEIK heavy (part 2 of 7): EVQLLESGGGLVQPGGSLRLSCAASGIDFSRRYYMCWVRQAPGKGLEWIACIYTGSRDTPHYASSAKGRFTISRDNSKNTLYLQMNSLRAEDTAVYYCAREGSLWGQGTLVTVSS heavy (part 3 of 7): not shown heavy (part 4 of 7): QSLVESGGGLVQPGGSLRLSCTASGFSLSRYYMTWVRQAPGKGLEWIGTIYTSGSTWYASWTKGRFTISKDNTKNTVDLQMNSLRAEDTAVYYCARSYYGGDKTGLGIWGQGTLVTVSS heavy (part 5 of 7): DIQMTQSPSTLSASVGDRVTITCQASQSIDSWLSWYQQKPGKAPKLLIYQASTLASGVPSRFSGSGSGTEFTLTISSLQPDDFATYYCQSAYGVSGTSSYLYTFGGGTKVEIK heavy (part 6 of 7): EVKLDETGGGLVQPGRPMKLSCVASGFTFSDYWMNWVRQSPEKGLEWVAQIRNKPYNYETYYSDSVKGRFTISRDDSKSSVYLQMNNLRVEDMGIYYCTGSYYGMDYWGQGTSVTVSS heavy (part 7 of 7): DVVMTQTPLSLPVSLGDQASISCRSSQSLVHSNGNTYLRWYLQKPGQSPKVLIYKVSNRFSGVPDRFSGSGSGTDFTLKISRVEAEDLGVYFCSQSTHVPWTFGGGTKLEIK light: AYDMTQSPSSVSASVGDRVTIKCQASEDIYSFLAWYQQKPGKAPKLLIHSASSLASGVPSRFSGSGSGTDFTLTISSLQPEDFATYYCQQGYGKNNVDNAFGGGTKVEIKRTVAAPSVFIFPPSDEQLKSGTASVVCLLNNFYPREAKVQWKVDNALQSGNSQESVTEQDSKDSTYSLSSTLTLSKADYEKHKVYACEVTHQGLSSPVTKSFNRGEC | binds | binds | –
4 | SI-27E12 (bispecific antibody, not shown: small tags and cut ends, the listing has only VHv3/VLv2; also called control SI-27E12) heavy (part 1 of 7): DVVMTQTPLSLPVSLGDQASISCRSSQSLVHSNGNTYLRWYLQKPGQSPKVLIYKVSNRFSGVPDRFSGSGSGTDFTLKISRVEAEDLGVYFCSQSTHVPWTFGGGTKLEIK heavy (part 2 of 7): EVKLDETGGGLVQPGRPMKLSCVASGFTFSDYWMNWVRQSPEKGLEWVAQIRNKPYNYETYYSDSVKGRFTISRDDSKSSVYLQMNNLRVEDMGIYYCTGSYYGMDYWGQGTSVTVSS heavy (part 3 of 7): not shown heavy (part 4 of 7): QSLVESGGGLVQPGGSLRLSCTASGFSLSRYYMTWVRQAPGKGLEWIGTIYTSGSTWYASWTKGRFTISKDNTKNTVDLQMNSLRAEDTAVYYCARSYYGGDKTGLGIWGQGTLVTVSS heavy (part 5 of 7): DIQMTQSPSTLSASVGDRVTITCQASQSIDSWLSWYQQKPGKAPKLLIYQASTLASGVPSRFSGSGSGTEFTLTISSLQPDDFATYYCQSAYGVSGTSSYLYTFGGGTKVEIK heavy (part 6 of 7): EVQLVESGGGLVQPGGSLRLSCAASGIDLSSNAMSWVRQAPGKGLEWIGVITGRDITYYASWAKGRFTISRDNSKNTLYLQMNSLRAEDTAVYYCARDGGSSAINSKNIWGQGTLVTVSS heavy (part 7 of 7): DIQMTQSPSTLSASVGDRVTITCQASESISSWLAWYQQKPGKAPKLLIYEASKLASGVPSRFSGSGSGTEFTLTISSLQPDDFATYYCQGYFYFISRTYVNAFGGGTKVEIK light: AYDMTQSPSSVSASVGDRVTIKCQASEDIYSFLAWYQQKPGKAPKLLIHSASSLASGVPSRFSGSGSGTDFTLTISSLQPEDFATYYCQQGYGKNNVDNAFGGGTKVEIKRTVAAPSVFIFPPSDEQLKSGTASVVCLLNNFYPREAKVQWKVDNALQSGNSQESVTEQDSKDSTYSLSSTLTLSKADYEKHKVYACEVTHQGLSSPVTKSFNRGEC | – | binds | –
5 | SI-27E13 (bispecific antibody, not shown: small tags and cut ends, the listing has only VHv3/VLv2) heavy (part 1 of 7): DIQMTQSPSTLSASVGDRVTITCQSSQSVYSNWFSWYQQKPGKAPKLLIYSASTLASGVPSRFSGSGSGTEFTLTISSLQPDDFATYYCAGGYNTVIDTFAFGGGTKVEIK heavy (part 2 of 7): EVQLLESGGGLVQPGGSLRLSCAASGIDFSRRYYMCWVRQAPGKGLEWIACIYTGSRDTPHYASSAKGRFTISRDNSKNTLYLQMNSLRAEDTAVYYCAREGSLWGQGTLVTVSS heavy (part 3 of 7): not shown heavy (part 4 of 7): EVKLDETGGGLVQPGRPMKLSCVASGFTFSDYWMNWVRQSPEKGLEWVAQIRNKPYNYETYYSDSVKGRFTISRDDSKSSVYLQMNNLRVEDMGIYYCTGSYYGMDYWGQGTSVTVSS heavy (part 5 of 7): DVVMTQTPLSLPVSLGDQASISCRSSQSLVHSNGNTYLRWYLQKPGQSPKVLIYKVSNRFSGVPDRFSGSGSGTDFTLKISRVEAEDLGVYFCSQSTHVPWTFGGGTKLEIK heavy (part 6 of 7): EVQLVESGGGLVQPGGSLRLSCAASGIDLSSNAMSWVRQAPGKGLEWIGVITGRDITYYASWAKGRFTISRDNSKNTLYLQMNSLRAEDTAVYYCARDGGSSAINSKNIWGQGTLVTVSS heavy (part 7 of 7): DIQMTQSPSTLSASVGDRVTITCQASESISSWLAWYQQKPGKAPKLLIYEASKLASGVPSRFSGSGSGTEFTLTISSLQPDDFATYYCQGYFYFISRTYVNAFGGGTKVEIK light: AYDMTQSPSSVSASVGDRVTIKCQASEDIYSFLAWYQQKPGKAPKLLIHSASSLASGVPSRFSGSGSGTDFTLTISSLQPEDFATYYCQQGYGKNNVDNAFGGGTKVEIKRTVAAPSVFIFPPSDEQLKSGTASVVCLLNNFYPREAKVQWKVDNALQSGNSQESVTEQDSKDSTYSLSSTLTLSKADYEKHKVYACEVTHQGLSSPVTKSFNRGEC | binds | binds | –
